Experimental data reported in patent US20260022175A1 (Chugai, published 2026).
Residue numbers refer to the chain shown, from its start.

B1: H240-Kn494/L73-k0//H240-Hl514/L73-k0 (antibody, human IgG1, kappa)
heavy 1: QDQLVQSGAEVKKPGASVKVSCKASGFNIKDTYIQWVRQAPGQGLEWMGRIDPLRKQTKYREKFEGRVTITADTSTNTAYMELSSLRSEDTAVYYCVRSGREFDYWGQGTLVTVSSASTKGPSVFPLAPSSKSTSGGTAALGCLVKDYFPEPVTVSWNSGALTSGVHTFPAVLQSSGLYSLSSVVTVPSSSLGTQTYICNVNHKPSNTKVDKKVEPKSCDKTHTCPPCPAPEFQWGPMVFLFPPKPKDVLMISRTPEVTCVVVDVSDEEPEVKFNWYVDGVEVHNAKTKPREEQYNATYRVVSVLPVLHQDWLNGKEYKCKVSNKALPAPEEKTISKAKGQPREPQVCTLPPSRDELTKNQVSLWCLVKGFYPSDIAVEWESNGQPENNYKTTPPVLDSDGSFFLYSKLTVDKSRWQQGNVFSCSVMHEALHNHYTQKSLSLSP
heavy 2: QDQLVQSGAEVKKPGASVKVSCKASGFNIKDTYIQWVRQAPGQGLEWMGRIDPLRKQTKYREKFEGRVTITADTSTNTAYMELSSLRSEDTAVYYCVRSGREFDYWGQGTLVTVSSASTKGPSVFPLAPSSKSTSGGTAALGCLVKDYFPEPVTVSWNSGALTSGVHTFPAVLQSSGLYSLSSVVTVPSSSLGTQTYICNVNHKPSNTKVDKKVEPKSCDKTHTCPPCPAPELLGGPSVFLFPPKPKDVLMISRTPEVTCVVVDVSHEEPEVKFNWYVDGVEVHNAKTKPREEQYNATYRVVSVLPVLHQDWLNGKEYKCKVSNDALPAPEEETISKAKGQPREPQVYTLPPSRCELTKNQVSLSCAVKGFYPSDIAVEWESNGQPENNYKTTPPVLDSDGSFFLVSKLTVDKSRWQQGNVFSCSVMHEALHNHYTQKSLSLSP
light: DIQMTQSPSSLSASVGDRVTITCRASQDIHKYIAWYQQKPGQAPRLLIQYTSTLQPGVPSRFSGSGSGTDYTFTISSLQPEDIATYYCLQYEQLRTFGGGTKVEIKRTVAAPSVFIFPPSDEQLKSGTASVVCLLNNFYPREAKVQWKVDNALQSGNSQESVTEQDSKDSTYSLSSTLTLSKADYEKHKVYACEVTHQGLSSPVTKSFNRGEC
notes: also called EGL-ART10; ART10
B2: H240-GASDALIE/L73-k0 (antibody, human IgG1, kappa)
heavy: QDQLVQSGAEVKKPGASVKVSCKASGFNIKDTYIQWVRQAPGQGLEWMGRIDPLRKQTKYREKFEGRVTITADTSTNTAYMELSSLRSEDTAVYYCVRSGREFDYWGQGTLVTVSSASTKGPSVFPLAPSSKSTSGGTAALGCLVKDYFPEPVTVSWNSGALTSGVHTFPAVLQSSGLYSLSSVVTVPSSSLGTQTYICNVNHKPSNTKVDKKVEPKSCDKTHTCPPCPAPELLAGPDVFLFPPKPKDTLMISRTPEVTCVVVDVSHEDPEVKFNWYVDGVEVHNAKTKPREEQYNSTYRVVSVLTVLHQDWLNGKEYKCKVSNKALPLPEEKTISKAKGQPREPQVYTLPPSRDELTKNQVSLTCLVKGFYPSDIAVEWESNGQPENNYKTTPPVLDSDGSFFLYSKLTVDKSRWQQGNVFSCSVMHEALHNHYTQKSLSLSP
light: B1 light
B3: 04H1207-G1m/04L1086-lam1 (antibody, human IgG1, lambda, V domains shown)
VH: EVQLVESGGGLVKPGGSLRLSCAASGFTFSSKTMNWVRQAPGKGLEWVSSISTRSGYIYYAESVKGRFTISRDNAKNSLYLQMNSLRAEDTAVYYCARYGKREDMLWVFDYWGQGTLVTVSS
VL: QSALTQPPSASGSPGQTVTISCDGPSTGVGDYNYVHWYQQHPGKAPKLMIYFTSKKPSGVPDRFSGSKSGNTASLTVSGLQAEDEADYFCQTYAAPLGPMFGGGTKLTVLG
notes: Human IgG1 constant region G1m (C-terminal Gly and Lys removed), human lambda chain lam1
B4: 04H1208-G1m/04L1086-lam1 (antibody, human IgG1, lambda, V domains shown)
VH: B3 VH with E62R
VL: B3 VL

Experiments:
[1] = target: T1, human FcγRIIb extracellular domain (human, UniProt P31994 43-217); assay: SPR Biacore 8K+, antibody captured, FcγR as analyte, steady state affinity model
T1 construct: extracellular domain; also called hFcγR IIb
T1 sequence (looked up): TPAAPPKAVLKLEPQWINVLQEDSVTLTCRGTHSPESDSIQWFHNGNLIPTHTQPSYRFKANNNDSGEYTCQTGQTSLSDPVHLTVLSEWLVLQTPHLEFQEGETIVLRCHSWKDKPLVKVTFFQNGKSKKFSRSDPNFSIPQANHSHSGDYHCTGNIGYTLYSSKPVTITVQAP
Description: (§1) The interaction between the produced antibodies and human FcγRs was analyzed using Biacore 8K+ by the method below. For the running buffer, 50 mM Na-Phosphate, 150 mM NaCl, and 0.05% Tween20 (pH 7.4) was used, and measurement was performed at 25° C. The sensor chip used was a Series S SA chip (GE Healthcare) onto which CaptureSelect Human Fab-kappa Kinetics Biotin Conjugate (Thermo Fisher Scientific) was immobilized. An antibody of interest was captured onto this chip, and each FcγR diluted with the running buffer was allowed to interact with it. The chip was regenerated using 10 mM Glycine-HCl (pH 1.5), and repeatedly used to capture antibodies and perform measurement. The dissociation constants KD (mol/L) of each antibody for FcγRs were calculated using Biacore Insight Evaluation Software, with a steady state affinity model for the dissociation constant for FcγRIIb and a 1:1 Langmuir binding model for the dissociation constants for the other FcγRs (Table 48).

[2] = target: hFcγRIIIaV on hFcγRIIIaV-expressing Jurkat cells (human, UniProt P08637 17-254); assay: cell-based or functional assay
Sequence of hFcγRIIIaV on hFcγRIIIaV-expressing Jurkat cells (P08637 17-254, form in doubt): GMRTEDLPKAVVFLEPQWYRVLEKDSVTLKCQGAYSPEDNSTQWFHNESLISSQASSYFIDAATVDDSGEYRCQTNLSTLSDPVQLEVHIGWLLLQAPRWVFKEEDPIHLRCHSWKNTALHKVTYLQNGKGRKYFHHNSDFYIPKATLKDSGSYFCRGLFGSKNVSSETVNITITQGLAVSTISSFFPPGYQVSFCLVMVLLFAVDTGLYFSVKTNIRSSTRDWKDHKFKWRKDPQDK

[3] = target: T2, human FcγRIIa H extracellular domain (human, UniProt P12318 34-217); assay: SPR Biacore 8K+; KD of G1d divided by KD of this antibody;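 also: antibodies captured on an anti-Fab-kappa streptavidin chip, soluble FcγR ectodomains flowed over, KD by steady-state fit for FcγRIIb and Langmuir kinetic model for the other receptors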
T2 construct: extracellular domain; also called hFcγR IIa H
T2 sequence (looked up): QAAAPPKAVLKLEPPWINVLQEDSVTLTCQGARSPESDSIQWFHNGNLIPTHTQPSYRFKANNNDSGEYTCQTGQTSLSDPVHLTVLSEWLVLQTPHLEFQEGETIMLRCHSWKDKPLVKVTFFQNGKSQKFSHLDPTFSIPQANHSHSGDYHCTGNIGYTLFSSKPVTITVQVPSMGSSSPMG
Description: as §1

[4] = target: T3, human FcγRIIIa F extracellular domain (human, UniProt P08637 17-208); assay: as above
T3 construct: extracellular domain; also called hFcγR IIIa F
T3 sequence (P08637 17-208): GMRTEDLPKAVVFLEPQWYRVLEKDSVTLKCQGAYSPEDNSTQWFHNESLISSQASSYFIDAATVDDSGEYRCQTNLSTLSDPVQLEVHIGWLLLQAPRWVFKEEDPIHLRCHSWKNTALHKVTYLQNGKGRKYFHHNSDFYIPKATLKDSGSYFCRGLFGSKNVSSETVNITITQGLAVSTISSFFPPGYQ
Description: as §1

[5] = target: T1, human FcγRIIb extracellular domain; assay: as above
Description: as §1

[6] = target: T4, human FcγRIa extracellular domain (human, UniProt P12314 16-292); assay: as above
T4 construct: extracellular domain; also called hFcγR Ia; hFcγRIa
T4 sequence (P12314 16-292): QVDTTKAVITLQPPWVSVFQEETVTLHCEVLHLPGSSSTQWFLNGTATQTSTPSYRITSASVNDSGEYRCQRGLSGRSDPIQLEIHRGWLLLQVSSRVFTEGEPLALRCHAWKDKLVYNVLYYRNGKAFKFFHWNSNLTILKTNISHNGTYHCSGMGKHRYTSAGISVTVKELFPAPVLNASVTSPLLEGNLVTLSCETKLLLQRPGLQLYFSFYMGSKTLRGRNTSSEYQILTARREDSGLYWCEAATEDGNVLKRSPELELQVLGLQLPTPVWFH
Description: as §1

[7] = target: T5, human FcγRIIIa V extracellular domain (human, UniProt P08637 17-208); assay: as above
T5 construct: extracellular domain; also called hFcγR IIIa V
T5 sequence (P08637 17-208 F176V limits assumed): as the sequence (P08637 17-208) above, with F160V counted along it
Description: as §1

[8] = target: T6, human FcγRIIa R extracellular domain (human, UniProt P12318 34-217); assay: as above
T6 construct: extracellular domain; also called hFcγR IIa R
T6 sequence (looked up): T2 sequence (looked up) with H134R
Description: as §1

[9] = target: T7, human C1q protein (Calbiochem) (human, UniProt P02745 23-245; P02746 28-253; P02747 29-245); assay: ELISA: antibody coated on the plate at the varied concentration, hC1q 3 µg/mL added, detected with HRP-conjugated anti-hC1q antibody, O.D (450-690nm)
T7 construct: bought; also called hC1q
T7 sequence (P02745 23-245 limits assumed, chain 1 of 3): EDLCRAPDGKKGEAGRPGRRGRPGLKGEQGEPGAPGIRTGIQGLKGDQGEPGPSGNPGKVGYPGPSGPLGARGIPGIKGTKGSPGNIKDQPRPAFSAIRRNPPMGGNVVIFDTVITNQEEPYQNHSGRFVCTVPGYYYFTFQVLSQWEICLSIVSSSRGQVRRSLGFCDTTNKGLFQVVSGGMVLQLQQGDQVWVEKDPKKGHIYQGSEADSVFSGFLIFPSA
T7 sequence (P02746 28-253 limits assumed, chain 2 of 3): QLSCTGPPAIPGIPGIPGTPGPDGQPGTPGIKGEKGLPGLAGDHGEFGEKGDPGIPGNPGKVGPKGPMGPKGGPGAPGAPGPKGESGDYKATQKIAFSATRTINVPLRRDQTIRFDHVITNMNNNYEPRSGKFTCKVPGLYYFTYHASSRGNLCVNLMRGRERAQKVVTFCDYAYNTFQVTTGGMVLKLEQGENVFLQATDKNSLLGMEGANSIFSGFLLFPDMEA
T7 sequence (P02747 29-245 limits assumed, chain 3 of 3): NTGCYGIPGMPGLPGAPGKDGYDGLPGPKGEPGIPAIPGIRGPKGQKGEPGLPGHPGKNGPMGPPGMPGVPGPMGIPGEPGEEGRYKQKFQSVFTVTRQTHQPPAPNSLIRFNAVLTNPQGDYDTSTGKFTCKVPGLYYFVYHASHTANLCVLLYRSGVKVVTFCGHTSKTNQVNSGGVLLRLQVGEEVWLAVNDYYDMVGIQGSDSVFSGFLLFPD
Description: The antigen used was a human C1q protein (hC1q).
First, a 96-well maxisorp plate (Thermo fisher) was coated at 4° C. overnight with 50 μL of solutions containing each antibody prepared at 30, 10, 3, 1, 0.3, 0.1, and 0.03 μg/mL in PBS. Each well of the plate was washed with Wash buffer to remove the antibody not bound to the plate, and then the wells were blocked with 200 μL of Blocking/dilution Buffer at room temperature for 2 hours or longer. After the Blocking/dilution Buffer was removed from each well, hC1q (Calbiochem) prepared such that the final concentration was 3 μg/mL in Blocking/dilution Buffer was added at 50 μL per well. The plate was then allowed to stand at room temperature for 1 hour to allow hC1q to bind to the antibody within each well. After washing with Wash Buffer, 50 μL of an HRP-conjugated anti-hC1q antibody (AbDSerotec) diluted with Blocking/dilution Buffer was added to each well, and the plate was incubated while standing for 1 hour. After washing with Wash Buffer, TMB single solution (Invitrogen) was added. The color development reaction of the solution in each well was stopped by addition of Stop Buffer, and then the developed color was measured by absorbance at 450 nm and 690 nm.

[10] = target: T2, human FcγRIIa H extracellular domain; assay: SPR Biacore 8K+; KD for FcγRIIb divided by KD for this FcγR;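 also: antibodies captured on an anti-human Fab kappa SA chip with soluble human FcγR ectodomains flowed over, FcγRIIb KD from steady-state fit, other FcγR KD from Langmuir model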
Description: as §1

[11] = target: T3, human FcγRIIIa F extracellular domain; assay: as above
Description: as §1

[12] = target: T5, human FcγRIIIa V extracellular domain; assay: as above
Description: as §1

[13] = target: T6, human FcγRIIa R extracellular domain; assay: as above
Description: as §1

[14] = target: T2, human FcγRIIa H extracellular domain; assay: SPR Biacore 8K+, antibody captured, FcγR as analyte, 1:1 Langmuir model;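 also: antibodies captured on a streptavidin chip through a biotinylated anti-human Fab kappa reagent, with FcγR extracellular domains injected in pH 7.4 phosphate buffer at 25 °C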
Description: as §1

[15] = target: T3, human FcγRIIIa F extracellular domain; assay: as above
Description: as §1

[16] = target: T4, human FcγRIa extracellular domain; assay: as above
Description: as §1

[17] = target: T5, human FcγRIIIa V extracellular domain; assay: as above
Description: as §1

[18] = target: T6, human FcγRIIa R extracellular domain; assay: as above
Description: as §1

[19] = target: T8, hFcγRIIaH on hFcγRIIaH-expressing Jurkat cells (human, UniProt P12318 34-317); assay: cell-based or functional assay
T8 sequence (looked up): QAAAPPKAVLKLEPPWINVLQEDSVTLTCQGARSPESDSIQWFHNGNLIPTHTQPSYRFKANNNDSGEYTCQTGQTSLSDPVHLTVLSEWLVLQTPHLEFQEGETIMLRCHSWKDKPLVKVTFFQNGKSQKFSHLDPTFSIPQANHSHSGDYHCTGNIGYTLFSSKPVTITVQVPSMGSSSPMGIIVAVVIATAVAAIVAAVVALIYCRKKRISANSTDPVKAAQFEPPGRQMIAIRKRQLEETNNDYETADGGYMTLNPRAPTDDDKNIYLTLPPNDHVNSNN

human CTLA4 [20] = target: T9, human CTLA4 (human); assay: SPR Biacore T200, 37C, antibody captured, ATP 10 uM; ATP 10 µM; binding amount
T9 construct: also called hCTLA4; hCTLA4-His-BAP
T9 sequence (chain, as listed by the source limits assumed): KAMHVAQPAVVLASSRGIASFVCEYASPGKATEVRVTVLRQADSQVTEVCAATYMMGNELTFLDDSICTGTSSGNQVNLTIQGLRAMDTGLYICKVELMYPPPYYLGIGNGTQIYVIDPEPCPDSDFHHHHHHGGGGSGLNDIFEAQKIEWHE
Description: (§2) Next, by interacting with a human CTLA4 solution prepared in a running buffer containing ATP to the desired concentration, or a human CTLA4 solution prepared in a running buffer containing no ATP, the binding ability of the antibody to human CTLA4 in the presence or absence of ATP was evaluated. Chips were regenerated with 25 mM NaOH and 10 mM Glycine-HCl (pH 1.5), and assay was performed by repeatedly capturing antibodies. The dissociation constant of each antibody for CTLA4 was calculated using Biacore T200 Evaluation Software 2.0. Specifically, the binding rate constant ka (L/mol/s) and the dissociation rate constant kd (1/s) were calculated by global fitting of the sensorgrams obtained by the measurement, using a 1:1 Langmuir binding model. The dissociation constant KD (mol/L) was calculated from those values. Alternatively, the dissociation constant KD (mol/L) was calculated by the steady state model. In addition, the binding amount of CTLA4 per unit amount of antibody was calculated by correcting the amount of CTLA4 bound as calculated from the sensorgram obtained by the assay with the amount of antibody captured onto the chip surface.
(§3) First, Sure Protein A (GE Healthcare) was immobilized onto a Series S Sensor Chip CM3 (GE Healthcare), and the antibodies were captured onto the chip by interacting an antibody solution prepared in the running buffer.

human CTLA4 [21] = target: T9, human CTLA4; assay: SPR Biacore T200, 37C, antibody captured, ATP 100 uM; ATP 100 µM
Description: (§4) Biacore T200 was used to measure the binding of the generated antibodies to human CTLA4. 20 mM ACES (pH 7.4), 150 mM NaCl, 2 mM MgCl₂, 0.05% Tween 20 with ATP added to the desired concentration was used as the running buffer, and the assay was performed at 37° C. First, Protein G (CALBIOCHEM) was immobilized onto a Series S Sensor Chip CM3 (GE Healthcare), and the antibodies were captured by interacting an antibody solution prepared in an ATP-free running buffer with the chip. Next, by interacting with a human CTLA4 solution prepared in a running buffer containing ATP to the desired concentration, or a human CTLA4 solution prepared in a running buffer containing no ATP, the binding ability of the antibody to human CTLA4 in the presence or absence of ATP was evaluated. Chips were regenerated with 25 mM NaOH and 10 mM Glycine-HCl (pH 1.5), and assay was performed by repeatedly capturing antibodies. The dissociation constant of each antibody for CTLA4 was calculated using Biacore T200 Evaluation Software 2.0. Specifically, the binding rate constant ka (L/mol/s) and the dissociation rate constant kd (1/s) were calculated by global fitting of the sensorgrams obtained by the measurement, using a 1:1 Langmuir binding model. The dissociation constant KD (mol/L) was calculated from those values. Alternatively, the dissociation constant KD (mol/L) was calculated by the steady state model. In addition, the binding amount of CTLA4 per unit amount of antibody was calculated by correcting the amount of CTLA4 bound as calculated from the sensorgram obtained by the assay with the amount of antibody captured onto the chip surface.

human CTLA4 [22] = target: T9, human CTLA4; assay: SPR Biacore T200, 37C, antibody captured, ATP 100 uM; ATP 100 µM; binding amount
Description: as §2, §3

human CTLA4 [23] = target: T9, human CTLA4; assay: SPR Biacore T200, 37C, antibody captured, no ATP; no ATP; binding amount
Description: as §2, §3

human CTLA4 [24] = target: T9, human CTLA4; assay: SPR Biacore T200, 37C, antibody captured, ATP 10 uM; ATP 10 µM
Description: as §4

human CTLA4 [25] = target: T9, human CTLA4; assay: SPR Biacore T200, 37C, antibody captured, ATP 1 uM; ATP 1 µM; binding amount
Description: as §2, §3

| Binder | Kd [1] [nM] | EC50 value (hFcγRIIIaV ADCC Reporter Bioassay, Hepa1-6/hEREG target cells) [2] [µg/mL] | Relative value to KD between G1d and hFcgRs [3] | Relative value to KD between G1d and hFcgRs [4] | Relative value to KD between G1d and hFcgRs [5] | Relative value to KD between G1d and hFcgRs [6] | Relative value to KD between G1d and hFcgRs [7] | Relative value to KD between G1d and hFcgRs [8] | binding result [9] | A/I ratio (KD for FcγRIIb divided by KD for each FcγR) [10] | A/I ratio (KD for FcγRIIb divided by KD for each FcγR) [11] | A/I ratio (KD for FcγRIIb divided by KD for each FcγR) [12] | A/I ratio (KD for FcγRIIb divided by KD for each FcγR) [13] | Kd [14] [nM] | Kd [15] [nM] | Kd [16] [nM] | Kd [17] [nM] | Kd [18] [nM] | EC50 value (hFcγRIIaH ADCP Reporter Bioassay, Hepa1-6/hEREG target cells) [19] [µg/mL] | Binding to Human CTLA4 (binding amount per unit amount of antibody) (human CTLA4 [20]) | further results |
| --- | --- | --- | --- | --- | --- | --- | --- | --- | --- | --- | --- | --- | --- | --- | --- | --- | --- | --- | --- | --- | --- |
| B1 | 7250 | 0.000107 | 2.7 | 1290 | 1.4 | 3.4 | 566 | 1.5 | binds | 17.3 | 3160 | 11400 | 6.6 | 420 | 2.29 | 0.0267 | 0.634 | 1100 | 0.0419 | – | – |
| B2 | 2670 | 0.00208 | 6.9 | 99.1 | 3.8 | 21.3 | 23.6 | 10.3 | no binding (tested: 30 µg/mL) | 16.5 | 89.3 | 176 | 16.5 | 162 | 29.8 | 0.00423 | 15.2 | 161 | 0.0324 | – | – |
| B3 | – | – | – | – | – | – | – | – | – | – | – | – | – | – | – | – | – | – | – | 0.111 | Kd (human CTLA4 [21]): 76 nM; Binding to Human CTLA4 (binding amount per unit amount of antibody) (human CTLA4 [22]): 0.166; Binding to Human CTLA4 (binding amount per unit amount of antibody) (human CTLA4 [23]): 0.01; Kd (human CTLA4 [24]): 400 nM; Binding to Human CTLA4 (binding amount per unit amount of antibody) (human CTLA4 [25]): 0.037 |
| B4 | – | – | – | – | – | – | – | – | – | – | – | – | – | – | – | – | – | – | – | 0.084 | Kd (human CTLA4 [21]): 91 nM; Binding to Human CTLA4 (binding amount per unit amount of antibody) (human CTLA4 [22]): 0.139; Binding to Human CTLA4 (binding amount per unit amount of antibody) (human CTLA4 [23]): 0.003; Kd (human CTLA4 [24]): 510 nM; Binding to Human CTLA4 (binding amount per unit amount of antibody) (human CTLA4 [25]): 0.022 |
